PMC6936867 (2019)

target: CAP256 pIgG; assay: SPR

| Binder | Kd |
| --- | --- |
| FcγRIIb (receptor) TPAAPPKAVLKLEPQWINVLQEDSVTLTCRGTHSPESDSIQWFHNGNLIPTHTQPSYRFKANNNDSGEYTCQTGQTSLSDPVHLTVLSEWLVLQTPHLEFQEGETIVLRCHSWKDKPLVKVTFFQNGKSKKFSRSDPNFSIPQANHSHSGDYHCTGNIGYTLYSSKPVTITVQAPSSSPMGIIVAVVTGIAVAAIVAAVVALIYCRKKRISALPGYPECREMGETLPEKPANPTNPDEADKVGAENTITYSLLMHPDALEEPDDQNRI | 5.3 µM |
| FcγRIIa R131 (receptor) QAAAPPKAVLKLEPPWINVLQEDSVTLTCQGARSPESDSIQWFHNGNLIPTHTQPSYRFKANNNDSGEYTCQTGQTSLSDPVHLTVLSEWLVLQTPHLEFQEGETIMLRCHSWKDKPLVKVTFFQNGKSQKFSRLDPTFSIPQANHSHSGDYHCTGNIGYTLFSSKPVTITVQVPSMGSSSPMG | 4.6 µM |
| FcγRIIa H131 (receptor) QAAAPPKAVLKLEPPWINVLQEDSVTLTCQGARSPESDSIQWFHNGNLIPTHTQPSYRFKANNNDSGEYTCQTGQTSLSDPVHLTVLSEWLVLQTPHLEFQEGETIMLRCHSWKDKPLVKVTFFQNGKSQKFSHLDPTFSIPQANHSHSGDYHCTGNIGYTLFSSKPVTITVQVPSMGSSSPMGIIVAVVIATAVAAIVAAVVALIYCRKKRISANSTDPVKAAQFEPPGRQMIAIRKRQLEETNNDYETADGGYMTLNPRAPTDDDKNIYLTLPPNDHVNSNN | 5.8 µM |
